{"source": "paper PMC10742460", "about": "“Lambda CI Binding to Related Phage Operator Sequences Validates Alignment Algorithm and Highlights the Importance of Overlooked Bonds”", "binders": {"B1": {"name": "SOR3 (Stx2I OR3) (dsDNA)", "DNA 1": "GGTTATTATGGGGGCGAATTCTTTGCGCTGCAAGTGC", "DNA 2": "GCACTTGCAGCGCAAAGAATTCGCCCCCATAATAACC"}, "B2": {"name": "VOR2 (VT2-SA OR2) (dsDNA)", "DNA 1": "GGTTATTATGGATGCACAATGTGTATTTTGCAAGTGC", "DNA 2": "GCACTTGCAAAATACACATTGTGCATCCATAATAACC"}, "B3": {"name": "SOL1 (Stx2I OL1) (dsDNA)", "DNA 1": "GGTTATTATGGCAATGATGATTTCATGCTGCAAGTGC", "DNA 2": "GCACTTGCAGCATGAAATCATCATTGCCATAATAACC"}, "B4": {"name": "VOR3 (VT2-SA OR3) (dsDNA)", "DNA 1": "GGTTATTATGGTATTACGCTCTGTACTGTGCAAGTGC", "DNA 2": "GCACTTGCACAGTACAGAGCGTAATACCATAATAACC"}, "B5": {"name": "VOL1 (VT2-SA OL1) (dsDNA)", "DNA 1": "B4 DNA 1 with T14G, C19A, C21A, G28T", "DNA 2": "B4 DNA 2 with C10A, G17T, G19T, A24C"}, "B6": {"name": "LOR2 (lambda OR2) (dsDNA)", "DNA 1": "GGTTATTATGGTAACACCGTGCGTGTTGTGCAAGTGC", "DNA 2": "GCACTTGCACAACACGCACGGTGTTACCATAATAACC"}, "B7": {"name": "VOL3 (VT2-SA OL3) (dsDNA)", "DNA 1": "GGTTATTATGGTACAACGCTTTGTATTTTGCAAGTGC", "DNA 2": "GCACTTGCAAAATACAAAGCGTTGTACCATAATAACC"}, "B8": {"name": "SOL2 (Stx2I OL2) (dsDNA)", "DNA 1": "GGTTATTATGGTGTAATATTTTCTTACATGCAAGTGC", "DNA 2": "GCACTTGCATGTAAGAAAATATTACACCATAATAACC"}, "B9": {"name": "SOR2 (Stx2I OR2) (dsDNA)", "DNA 1": "GGTTATTATGGATGAGTACGATACTAAATGCAAGTGC", "DNA 2": "GCACTTGCATTTAGTATCGTACTCATCCATAATAACC"}, "B10": {"name": "VOL2 (VT2-SA OL2) (dsDNA)", "DNA 1": "GGTTATTATGGCAATACAATTTGTTCTATGCAAGTGC", "DNA 2": "GCACTTGCATAGAACAAATTGTATTGCCATAATAACC"}, "B11": {"name": "LOR1 (lambda OR1) (dsDNA)", "DNA 1": "GGTTATTATGGTACCTCTGGCGGTGATATGCAAGTGC", "DNA 2": "GCACTTGCATATCACCGCCAGAGGTACCATAATAACC"}, "B12": {"name": "LOL3 (lambda OL3) (dsDNA)", "DNA 1": "GGTTATTATGGTATCACCGCAGATGGTTTGCAAGTGC", "DNA 2": "GCACTTGCAAACCATCTGCGGTGATACCATAATAACC"}, "B13": {"name": "LOR3 (lambda OR3) (dsDNA)", "DNA 1": "GGTTATTATGGTATCACCGCAAGGGATATGCAAGTGC", "DNA 2": "GCACTTGCATATCCCTTGCGGTGATACCATAATAACC"}, "B14": {"name": "LOL1 (lambda OL1) (dsDNA)", "DNA 1": "B13 DNA 1 with A21C, G24T, A26G", "DNA 2": "B13 DNA 2 with T12C, C14A, T17G"}, "B15": {"name": "LOL2 (lambda OL2) (dsDNA)", "DNA 1": "B13 DNA 1 with T12C, T14A, A21C, G24A", "DNA 2": "B13 DNA 2 with C14T, T17G, A24T, A26G"}, "B16": {"name": "VOR1 (VT2-SA OR1) (dsDNA)", "DNA 1": "GGTTATTATGGAAGTACATATTGTATTTTGCAAGTGC", "DNA 2": "GCACTTGCAAAATACAATATGTACTTCCATAATAACC"}, "B17": {"name": "SOL3 (Stx2I OL3) (dsDNA)", "DNA 1": "GGTTATTATGGGCTTCTTGAATAACAGCTGCAAGTGC", "DNA 2": "GCACTTGCAGCTGTTATTCAAGAAGCCCATAATAACC"}, "B18": {"name": "SOR1 (Stx2I OR1) (dsDNA)", "DNA 1": "GGTTATTATGGTTTCAGTTCAACCATAATGCAAGTGC", "DNA 2": "GCACTTGCATTATGGTTGAACTGAAACCATAATAACC"}}, "note": "Where a chain is given by its changes, count along the chain named."}
{"biological_target": "T1, lambda CI repressor (Bacteriophage lambda, UniProt P03034 1-237)", "T1 sequence (P03034 whole entry)": "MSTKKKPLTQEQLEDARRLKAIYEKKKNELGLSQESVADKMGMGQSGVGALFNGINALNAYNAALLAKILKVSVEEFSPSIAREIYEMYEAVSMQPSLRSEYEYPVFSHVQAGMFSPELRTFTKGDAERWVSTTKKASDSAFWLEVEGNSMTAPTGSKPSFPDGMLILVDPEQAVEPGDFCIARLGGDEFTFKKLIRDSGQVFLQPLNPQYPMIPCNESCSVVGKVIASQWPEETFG", "test": "EMSA; apparent Kd; text gives error 3.10; EMSA: 10 mM HEPES, 150 mM NaCl, pH 7.4; 50 nM DNA, 0.4-40 uM CI; 20 min at room temperature; 10% polyacrylamide gel, 1x TBE pH 8.3, SYBR Safe stain", "conditions": "protein: recombinant; tags: His-tag, TEV cleavage site with linker (pET 29b+); chain copies: 2; label: none (SYBR Safe stain)", "units": {"Kd": "µM"}}
{"binder": "B1", "Kd": "7.68 ± 3.09"}
{"biological_target": "T1, lambda CI repressor", "test": "EMSA; apparent Kd; EMSA: 10 mM HEPES, 150 mM NaCl, pH 7.4; 50 nM DNA, 0.4-40 uM CI; 20 min at room temperature; 10% polyacrylamide gel, 1x TBE pH 8.3, SYBR Safe stain", "conditions": "protein: recombinant; tags: His-tag, TEV cleavage site with linker (pET 29b+); chain copies: 2; label: none (SYBR Safe stain)", "units": {"Kd": "µM"}}
{"binder": "B2", "Kd": "6.39 ± 2.75"}
{"binder": "B3", "Kd": "7.11 ± 1.27"}
{"binder": "B4", "Kd": "4.41 ± 0.99"}
{"binder": "B5", "Kd": "5.37 ± 1.16"}
{"binder": "B6", "Kd": "1.55 ± 0.29"}
{"binder": "B7", "Kd": "3.67 ± 0.1"}
{"binder": "B8", "Kd": "3.68 ± 0.47"}
{"binder": "B9", "Kd": "7.67 ± 2.62"}
{"binder": "B10", "Kd": "4.02 ± 0.16"}
{"binder": "B11", "Kd": "0.35 ± 0.03"}
{"binder": "B12", "Kd": "1.21 ± 0.08"}
{"binder": "B13", "Kd": "3.07 ± 1.13"}
{"binder": "B14", "Kd": "0.21 ± 0.02"}
{"binder": "B15", "Kd": "1.5 ± 0.17"}
{"binder": "B16", "Kd": "5.15 ± 2.39"}
{"binder": "B17", "Kd": "4.26 ± 0.27"}
{"binder": "B18", "Kd": "7.27 ± 2.39"}
